The target of assay [1] is TGR12-GFP (fused protein of human TGR12 and GFP, encoded by the DNA of SEQ ID NO: 31), stably expressed on CHO cells (CHO-TGR12 of Example 1) (human) (UniProt Q96LB1). Nature of the assay: cell-based or functional assay.
The target in a further assay is T1, human TGR12 (untagged) (human, UniProt Q96LB1 1-330).
T1 sequence: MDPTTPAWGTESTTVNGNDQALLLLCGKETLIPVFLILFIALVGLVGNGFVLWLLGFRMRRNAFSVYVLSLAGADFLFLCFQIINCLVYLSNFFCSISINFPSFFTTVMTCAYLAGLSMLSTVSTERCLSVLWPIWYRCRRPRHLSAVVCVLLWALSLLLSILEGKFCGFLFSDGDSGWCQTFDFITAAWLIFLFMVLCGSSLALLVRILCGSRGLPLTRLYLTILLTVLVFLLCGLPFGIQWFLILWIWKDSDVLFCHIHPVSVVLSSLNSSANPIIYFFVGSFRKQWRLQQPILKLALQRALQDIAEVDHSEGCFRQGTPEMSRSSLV
Description: cell-based or functional assay.

The results in this text go back to patent US20100068208A1, “Degranulation inhibitor” (priority 2005, published 2010).

For the substance “human PAMP12 (proadrenomedullin N-terminal 20 peptide (9-20)) (from UniProt P35318 30-41)”, in assay [1], the EC50 in the calcium increasing effect on CHO-TGR12 stood at 0.098 µM; the maximum activity in the calcium increasing effect (FLIPR), CHO-TGR12, at 0.3 nM (fluorescence intensity) was 255; the maximum activity in the calcium increasing effect (FLIPR), CHO-TGR12, at 3 nM (fluorescence intensity) came out at 1620; the maximum activity in the calcium increasing effect (FLIPR), CHO-TGR12, at 30 nM (fluorescence intensity) was 22300. For the same substance, in assay [1], the maximum activity in the calcium increasing effect (FLIPR), CHO-TGR12, at 300 nM (fluorescence intensity) turned out to be 24100 and the maximum activity in the calcium increasing effect (FLIPR), CHO-TGR12, at 3000 nM (fluorescence intensity) was 23700. In the assay with human TGR12 (untagged), the EC50 in the degranulation on LAD 2 was determined as 0.013 µM; the degranulation of LAD 2 (beta-hexosaminidase release, % of total) at 3 nM turned out to be 6.3%; the degranulation of LAD 2 (beta-hexosaminidase release, % of total) at 10 nM stood at 30.7%; the degranulation of LAD 2 (beta-hexosaminidase release, % of total) at 30 nM is 52.1%. In the assay with human TGR12 (untagged), the degranulation of LAD 2 (beta-hexosaminidase release, % of total) at 100 nM was 65.2%; the degranulation of LAD 2 (beta-hexosaminidase release, % of total) at 300 nM is 67.7%; the degranulation of LAD 2 (beta-hexosaminidase release, % of total) at 1 µM was determined as 69.3%; the maximum activity in the calcium increasing effect (FLIPR), RBL2H3-TGR12, at 1 nM (fluorescence intensity) was determined as 41. In the assay with human TGR12 (untagged), the maximum activity in the calcium increasing effect (FLIPR), RBL2H3-TGR12, at 10 nM (fluorescence intensity) was 2090; the maximum activity in the calcium increasing effect (FLIPR), RBL2H3-TGR12, at 100 nM (fluorescence intensity) came to 11100; the maximum activity in the calcium increasing effect (FLIPR), RBL2H3-TGR12, at 1 µM (fluorescence intensity) came out at 12000; the maximum activity in the calcium increasing effect (FLIPR), RBL2H3-TGR12, at 10 µM (fluorescence intensity) worked out at 12300.
